Results on seven molecules are retold here after patent US20220372154A1 (APEXIGEN, published 2022).

In general, EC50 refers to the concentration that produces a half-maximal response. Lower therefore signals greater potency. Usually IC50 stands for the point on the concentration scale where inhibition reaches its midpoint. The term Kd denotes the equilibrium constant for the complex coming apart. The low end stands for tighter binding, the high end for weaker binding.

Assay [1] addresses T1, cynomolgus TNFR2-His tagged protein (cynomolgus, UniProt A0A2K5VET2 132-366).
T1 construct: also called Cyno TNFR2; cynomolgus TNFR2 protein; not shown: His tag
T1 sequence: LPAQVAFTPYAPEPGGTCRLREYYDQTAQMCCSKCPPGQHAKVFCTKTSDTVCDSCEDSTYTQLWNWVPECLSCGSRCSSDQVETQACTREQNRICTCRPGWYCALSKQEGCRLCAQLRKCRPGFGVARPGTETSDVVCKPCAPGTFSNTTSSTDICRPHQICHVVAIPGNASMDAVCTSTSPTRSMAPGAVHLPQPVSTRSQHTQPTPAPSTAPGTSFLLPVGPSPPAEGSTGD
As to the kind of experiment: ELISA, cynomolgus TNFR2. (In general: An ELISA detects its analyte on a solid surface through an enzyme-linked reagent.)

Assay [2] concerns the target T2, human TNFR2-His tagged protein (soluble) (human, UniProt P20333 23-257).
T2 construct: also called hTNFR2 (soluble); soluble TNFR2-His; not shown: His tag
T2 sequence (looked up): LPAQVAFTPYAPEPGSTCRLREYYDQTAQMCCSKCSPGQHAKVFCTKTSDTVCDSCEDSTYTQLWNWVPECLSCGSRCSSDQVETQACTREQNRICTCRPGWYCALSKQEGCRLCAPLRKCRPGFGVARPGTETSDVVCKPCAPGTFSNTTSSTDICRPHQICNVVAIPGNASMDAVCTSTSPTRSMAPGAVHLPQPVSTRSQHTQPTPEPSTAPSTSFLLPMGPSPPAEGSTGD
The experiment in a line: ELISA, soluble human TNFR2.

Assay [3] deals with T3, TNFR-Fc (UniProt P20333 23-257, limits assumed).
T3 construct: Printed only as TNFR-Fc; not shown: Fc part
T3 sequence (looked up): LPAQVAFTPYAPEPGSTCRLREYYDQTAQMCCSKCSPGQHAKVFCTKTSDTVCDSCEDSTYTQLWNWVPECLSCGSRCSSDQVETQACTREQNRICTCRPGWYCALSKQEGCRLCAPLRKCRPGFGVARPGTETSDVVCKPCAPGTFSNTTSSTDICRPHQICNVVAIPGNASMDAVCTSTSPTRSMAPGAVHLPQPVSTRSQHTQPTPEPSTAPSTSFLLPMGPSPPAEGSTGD
As to the kind of experiment: TNF-α blocking ELISA (soluble).

For assay [4], the target named is T4, human TNFR2 expressed on cells (human, UniProt P20333 23-461).
T4 construct: whole, on cells; also called hTNFR2 (cell); CHO-TNFR2
T4 sequence (looked up): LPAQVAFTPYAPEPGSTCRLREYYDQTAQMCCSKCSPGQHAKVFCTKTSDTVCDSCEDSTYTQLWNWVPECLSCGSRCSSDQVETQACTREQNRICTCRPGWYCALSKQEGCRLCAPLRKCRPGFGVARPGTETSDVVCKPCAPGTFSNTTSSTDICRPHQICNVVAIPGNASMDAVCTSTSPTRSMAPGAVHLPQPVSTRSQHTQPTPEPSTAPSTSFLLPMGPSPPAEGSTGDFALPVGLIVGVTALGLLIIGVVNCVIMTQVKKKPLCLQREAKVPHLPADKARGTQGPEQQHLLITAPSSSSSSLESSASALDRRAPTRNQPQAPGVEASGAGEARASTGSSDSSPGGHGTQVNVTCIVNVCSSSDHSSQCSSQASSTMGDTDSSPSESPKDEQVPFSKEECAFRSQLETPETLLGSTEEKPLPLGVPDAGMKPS
As to the kind of experiment: flow cytometry, cell-expressed human TNFR2.

The target in assay [5] is T4, human TNFR2 expressed on cells. The experiment in a line: cell binding on TNFR2-overexpressing (OE) cells.
Assay [6] has the same target. The experiment in a line: blocking of biotinylated TNF-α on TNFR2-CHO cells, flow cytometry. How it is done:
TNFR2-overexpressing CHO cells were plated at 100,000 cells per well. Cells were incubated with the indicated antibodies for 30 minutes on ice. […] Cells were analyzed using Cytoflex or MACSQuant flow cytometer. Assay was repeated twice.

For assay [7], the target named is T2, human TNFR2-His tagged protein (soluble). As to the kind of experiment: ELISA on coated human TNFR2-His. The gist of the method:
(§1)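 TNFR2-His ELISAs: human or cynomolgus protein coated at 1 μg/mL overnight at 4 °C, BSA-blocked, antibodies 1 h RT, anti-human HRP, TMB 3–5 min. Flow: 200,000 human TNFR2-CHO cells, antibody 1 h, anti-human IgG BV421 20 min. Blocking ELISA: TNFR-Fc coated 1 ug/mL, antibodies 1 h RT, TMB 5–7 min.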

Assay [8] has as its target T1, cynomolgus TNFR2-His tagged protein. The experiment in a line: ELISA on coated cynomolgus TNFR2-His. The gist of the method:
as §1

The target in assay [9] is T3, TNFR-Fc. As to the kind of experiment: TNF-α blocking ELISA on coated TNFR-Fc. How it is done: In FIGS. 3A-3B, human (3A) or cynomolgus (3B) TNFR2-His tagged protein was coated on 96-well ELISA plates at 1 μg/mL and incubated overnight at 4° C. Plates were washed and blocked using 1% BSA. Antibodies were added for 1 hour at room temperature (RT), washed, and detected using anti-Human HRP. Assay was developed using TMB substrate for 3-5 minutes. In FIG. 3C, FACS binding was performed on CHO cells that were engineered to express human TNFR2. Briefly, antibodies were incubated with 200,000 cells in MACS buffer for 1 hour followed by wash and detection using anti-human IgG BV421 for 20 minutes. Samples were analyzed using Cytoflex or MACSQuant flow cytometers. In FIG. 3D, ligand blocking ELISA was performed by coating plates with 1 ug/mL TNFR-Fc overnight at 4° C. Plates were washed, blocked and antibodies were incubated for 1 hr at RT. […] Assay was developed using TMB substrate for 5-7 minutes.

In assay [10] the target is T5, TNFR2 CRD4 peptide (peptide 5; aa 146-174 of mature TNFR2) (human).
T5 construct: Range counted on mature TNFR2; also called peptide five; bin 5
T5 peptide: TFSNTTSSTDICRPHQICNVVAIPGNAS
As to the kind of experiment: peptide-binding ELISA (potential peptide bin).

Assay [11] concerns the target T4, human TNFR2 expressed on cells. The experiment in a line: flow cytometry on CHO cells expressing human TNFR2. The gist of the method: as §1
On the technique in general: In flow cytometry, cells or beads pass a laser one at a time.

The target of another assay is T6, soluble mouse TNFR2 (mouse, UniProt P25119 23-258, limits assumed).
T6 sequence (looked up): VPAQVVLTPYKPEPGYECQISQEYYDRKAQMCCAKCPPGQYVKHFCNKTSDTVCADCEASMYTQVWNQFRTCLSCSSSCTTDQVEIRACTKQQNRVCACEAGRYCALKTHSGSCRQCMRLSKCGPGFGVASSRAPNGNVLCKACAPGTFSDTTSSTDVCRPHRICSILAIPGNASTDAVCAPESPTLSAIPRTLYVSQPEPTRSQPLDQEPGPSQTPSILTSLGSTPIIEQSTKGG
The experiment in a line: binding screen on soluble mouse TNFR2 (mouse cross-reactivity).

B1: humanized antibody h600_24_2 (antibody, V domains shown)
VH: EVQLVESGGGLVQPGGSLRLSCAASGFSFSVSYWICWVRQAPGKGLEWVACTDGGDGSSYYASWVNGRFTISRDNSKNTLYLQMNSLRAEDTAVYYCARDRSDVFNLWGQGTLVTVSS
VL: DIQMTQSPSSLSASVGDRVTITCQAGQSIDSNLAWYQQKPGKAPKLLIYRASTLASGVPSRFSGSGSGTDFTLTISSLQPEDFATYYCQSFYVTISAMVDYPFGGGTKVEIK
For B1, the EC50 in assay [1] came to 0.131 nM; in assay [2], 0.149 nM; in [4] it was 0.377 nM. Further, the values for the IC50 (in the assay with TNFR-Fc [3]; in assay [6]) were 3.52 nM and 0.447 nM, respectively. The Kd in assay [5] came to 0.245 nM.

B2: humanized antibody h600_HB_55F6.6 (antibody, V domains shown)
VH: EVQLVESGGGLVQPGGSLRLSCAASGFSFTNNYYMCWVRQAPGKGLEWVGCIYPSIVGPTYYANWAKGRFTISRDNSKNTLYLQMNSLRAEDTAVYYCVRDRYDDYGDYFNLWGQGTLVTVSS
VL: DIQMTQSPSSLSASVGDRVTITCQASQSIYNYLSWYQQKPGKAPKRLIYYASTLASGVPSRFSGSGSGTDFTLTISSLQPEDFATYYCQSNSGVNGNRYGNAFGGGTKVEIK
notes: also called 55F6.1
B2: the values for the 50% effective concentration (EC50) in assay [1], in assay [2] and in assay [4] were 0.109 nM, 0.131 nM and 0.672 nM, respectively. Moreover, the IC50 with TNFR-Fc [3] turned out to be 3.81 nM; in assay [6] it was 0.566 nM. For the same molecule, in assay [5], the Kd was 0.539 nM.

B3: chimeric antibody clone 25-31 (rab600_25_31) (antibody, V domains shown)
VH: QEQLKESGGGLVTPGTPLTLTCTASGFSLSSYDMSWVRQAPGKGLEWIGYIWSSGSAYYATWAEGRFTISKTSTTVGLKITSPTTEDTATYFCARRYVGSSYDTWGQGTLVTVSS
VL: AVLTQTPSPVSAAVGGTVTISCQSSQSVSNNNYLSWYQQKPGQPPKLLIYAASYLASGVPPRFSGSGSGTQFTLTISGVQCDDAATYYCLGDYDNDIDHAFGGGTEVVVK
B3: the half-maximal effective concentration (EC50) in [7] is 0.0704 nM; in assay [8] it was 0.038 nM; in [11], 3.15 nM. In the assay with TNFR-Fc [9], this molecule returned an IC50 of 4.13 nM. In addition, the binding result in assay [10] was “binds”; in the assay with soluble mouse TNFR2, “no binding”.

B4: humanized antibody h600_25_9 (antibody, V domains shown)
VH: EVQLVESGGGLVQPGGSLRLSCAASGFSLSTYDINWVRQAPGKGLEWVGIIYTGGITNFANWAKGRFTISRDNSKNTLYLQMNSLRAEDTAVYYCARGGYDSEGYVYPDAFDPWGQGTLVTVSS
VL: DIQMTQSPSSLSASVGDRVTITCQASESISNLLAWYQQKPGKAPKLLIYRASILTSGVPSRFSGSGSGTDFTLTISSLQPEDFATYYCQHGYTGTNVQNVFGGGTKVEIK
As to B4, the EC50 in assay [1] came to 0.046 nM; in assay [2], 0.051 nM; in assay [4] it was 0.587 nM. Moreover, the figures for the IC50 (in the assay with TNFR-Fc [3]; in [6]) were 0.465 nM and 7.02 nM, respectively. For the same molecule, the Kd in assay [5] was 0.387 nM.

B5: humanized antibody h600_HB_28B7.3 (antibody, V domains shown)
VH: EVQLVESGGGLVQPGGSLRLSCAASGFSLNSHYMIWVRQAPGKGLEWVGIITSSDYIYYARWAKGRFTISRDNSKNTLYLQMNSLRAEDTAVYYCARYNYDDDGELFNLWGQGTLVTVSS
VL: DIQMTQSPSSLSASVGDRVTITCQSSQSIDANNDLAWYQQKPGKAPKLLIYLASKLASGVPSRFSGSGSGTDFTLTISSLQPEDFATYYCLGGYDDDADNTFGGGTKVEIK
notes: also called h600_23_28B7
B5: the EC50 was 0.211 nM in assay [1], 0.24 nM in assay [2] and 0.28 nM in [4]. Moreover, the IC50 with TNFR-Fc [3] amounted to 2.46 nM; in [6] it was 0.379 nM. In addition, in assay [5], the Kd stood at 0.13 nM.

B6: chimeric antibody clone 24-124 (rab600_24_124) (antibody, V domains shown)
VH: QEQLVESGGGLVTLGGSLKLSCKASGIDFSSYGISWVRQAPGKGLEWIAYIYPDYGSTDYATWVNGRFTISLDNAQNTVFLQMTSLTAADTATYFCASGYASSSGYYDPKYFGLWGPGTLVTVSS
VL: IKMTQTPASVSAAVGGTVTINCRASEDIESYLAWYQQKPGQPPKLLIYDASDLASGVPSRVKGSGSGTEFTLTISGVRCDDAATYYCQHGFYTSRSDSVFGGGTEVVVK
On to B6, for which the EC50 came out at 0.137 nM in [7], 0.0882 nM in assay [8] and 0.179 nM in assay [11]. The same molecule came in with an IC50 with TNFR-Fc [9] of 2.54 nM. The values for the binding result (in assay [10]; with soluble mouse TNFR2) were “binds” and “no binding”, respectively.

B7: humanized antibody h600_24_124 (antibody, V domains shown)
VH: EVQLVESGGGLVQPGGSLRLSCAASGIDFSSYGISWVRQAPGKGLEWVAYIYPDYGSTDYATWVNGRFTISLDNSKNTLYLQMNSLRAEDTAVYYCASGYASSSGYYDPKYFGLWGQGTLVTVSS
VL: DIQMTQSPSSLSASVGDRVTITCRASEDIESYLAWYQQKPGKAPKLLIYDASDLASGVPSRFSGSGSGTDFTLTISSLQPEDFATYYCQHGFYTSRSDSVFGGGTKVEIK
As to B7, the 50% effective concentration (EC50) in assay [1] was found to be 0.058 nM; in [2] it was 0.098 nM; in assay [4], 0.408 nM. Further, the values for the IC50 (in the assay with TNFR-Fc [3]; in assay [6]) were 2.29 nM and 0.567 nM, respectively. In assay [5], the Kd came to 0.291 nM.
